{"source": "paper PMC7736808", "experiment_in_all_cases": "MST", "details_in_all_cases": "5-bromo-dC at every C, MST at 22 C, 5 nM labeled DNA, 0.5 mg/ml BSA, 0.05% Tween 20, 5 mM HEPES pH 7.5, 20 mM NaCl (Table 2), 20 mM HEPES pH 8.0, 100 mM NaCl (Table 4)", "key": {"[1]": {"target": "vvZαE3L (UniProt P21605)"}, "[2]": {"target": "T1, hZαADAR1 (human) (UniProt P55265)", "T1 sequence": "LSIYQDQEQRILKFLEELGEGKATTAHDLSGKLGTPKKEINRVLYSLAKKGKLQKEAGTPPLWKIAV"}, "[3]": {"target": "T2, GH5*:α3NADAR1-PW K41G;S42G;R43G;K53A;R95A;del65;D66K;L67K;Q68E;K70N;L71R;S72V;I73L;R74Y;R75S;S91P;F94W (/ human ADAR1 α3N and β-wing residues) (UniProt P02259)", "T2 sequence": "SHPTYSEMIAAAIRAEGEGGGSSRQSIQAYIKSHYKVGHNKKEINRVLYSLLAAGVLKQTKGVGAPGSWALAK"}, "[4]": {"target": "T1, hZαADAR1 (human)", "remark": "listed apart in the source"}}}
{"sequence": "TCGCGCGCGCGCGCGCGCGCGCGCGCGCGCG (double strand) [Z-DNA, [d(5'-Cy5-T(Br5CG)15)]2]", "values": [{"measurement": "Kd", "setting": "[1]", "result": 2, "unit": "µM"}, {"measurement": "Kd", "setting": "[2]", "result": 0.018, "unit": "µM"}, {"measurement": "Kd", "setting": "[3]", "result": 1.8, "unit": "µM"}, {"measurement": "Kd", "setting": "[4]", "result": 0.6, "unit": "µM"}]}
